The source of these data is IntAct's records for PubMed 22821967.

To fix the notation:
B1: Uncharacterized protein YpfA (Bacillus subtilis), P38491 (parent)
chain: MIEIGENVLLEYIEENELKKAKSKAVSIENNELLIAYPVDVVTGRTVILHNDMEVTVEFVGKDEVPYRFISRIKGKVKDKLQMICLEMPPREKMKRIQRRQYVRTDAVLDVQIQPGNEEEIRTLSYNISAGGIAVVLADGLSFQSGESLRLIIRLPEEEHTRQIETEAVVRRIFNDPKSEKRKMTLEYSEIAAGDQQALLQYCIRRQLNKRRKARME
partner: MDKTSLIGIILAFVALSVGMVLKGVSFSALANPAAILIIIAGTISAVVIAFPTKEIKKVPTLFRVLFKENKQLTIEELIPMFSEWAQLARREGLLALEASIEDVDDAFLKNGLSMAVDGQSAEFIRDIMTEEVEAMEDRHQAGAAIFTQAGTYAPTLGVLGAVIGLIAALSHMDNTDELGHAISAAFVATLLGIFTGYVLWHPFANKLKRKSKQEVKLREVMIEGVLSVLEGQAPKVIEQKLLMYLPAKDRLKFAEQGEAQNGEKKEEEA

The experiment covers variants of B1. The following applies: with mota_bacsu motA.
For the variant MIEIGENVLLEYIEENELKKAKSKAVSIENNELLIAYPVDVVTGRTVILHNDMEVTVEFVGKDEVPYRFISRIKGKVKDKLQMICLEMPPREKMKRIQRFQYVRTDAVLDVQIQPGNEEEIRTLSYNISAGGIAVVLADGLSFQSGESLRLIIRLPEEEHTRQIETEAVVRRIFNDPKSEKRKMTLEYSEIAAGDQQALLQYCIRRQLNKRRKARME [R100F], the “effect of a mutation on the interaction” value is listed as “disrupting interaction”.
For MIEIGENVLLEYIEENELKKAKSKAVSIENNELLIAYPVDVVTGRTVILHNDMEVTVEFVGKDEVPYRFISRIKGKVKDKLQMICLEMPPREKMKRIQRRQYVDTDAVLDVQIQPGNEEEIRTLSYNISAGGIAVVLADGLSFQSGESLRLIIRLPEEEHTRQIETEAVVRRIFNDPKSEKRKMTLEYSEIAAGDQQALLQYCIRRQLNKRRKARME [R104D], the “effect of a mutation on the interaction” value is listed as “disrupting interaction”.
Next, MIEIGENVLLEYIEENELKKAKSKAVSIENNELLIAYPVDVVTGRTVILHNDMEVTVEFVGKDEVPYRFISRIKGKVKDKLQMICLEMPPREKMKRIQRRQYVRTDAVLDVQIQPGNEEEIRTLSYNISAGAIAVVLADGLSFQSGESLRLIIRLPEEEHTRQIETEAVVRRIFNDPKSEKRKMTLEYSEIAAGDQQALLQYCIRRQLNKRRKARME [G132A]: “disrupting interaction”; MIEIGENVLLEYIEENELKKAKSKAVSIENNELLIAYPVDVVTGRTVILHNDMEVTVEFVGKDEVPYRFISRIKGKVKDKLQMICLEMPPREKMKRIQRRQYVRTDAVLDVQIQPGNEEEIRTLSYAISAGGIAVVLADGLSFQSGESLRLIIRLPEEEHTRQIETEAVVRRIFNDPKSEKRKMTLEYSEIAAGDQQALLQYCIRRQLNKRRKARME [N127A]: “disrupting interaction”.
